Source: patent US7588931B2, “High arachidonic acid producing strains of Yarrowia lipolytica” (E. I. du Pont de Nemours and Company, priority 2004, dated 2009)
Entries after “also recorded” stand apart in the source; their conditions may differ.

Columns and labels:
GUS mRNA = test: Comparative analysis of promoters by quantitative (Real Time) PCR of GUS mRNA; format: cell-based, Yarrowia lipolytica; conditions: for transcription activity relative to the TEF promoter: after 24 hrs in HGM, ATCC #76982 strains
Procedure: The transcriptional activities of the TEF, GPD, GPDIN, FBA and FBAIN promoters were determined in Y. lipolytica containing the pY5-30, PYZGDG, pDMW222, pDMW212 and pDMW214 constructs by quantitative PCR analyses. This required isolation of RNA and real time RT-PCR.
More specifically, Y. lipolytica ATCC #76982 strains containing pY5-30, PYZGDG, pDMW222, pDMW212 and pDMW214 were grown from single colonies in 6 mL of MM in 25 mL Erlenmeyer flasks for 16 hrs at 30° C. Each of the 6 mL starter cultures was then added to individual 500 mL flasks containing 140 mL HGM and incubated at 30° C. for 4 days. In each interval of 24 hrs, 1 mL of each culture was removed from each flask to measure the optical density, 27 mL was removed and used for a fluorometric GUS assay (as described above), and two aliquots of 1.5 mL were removed for RNA isolation. The culture for RNA isolation was centrifuged to produce a cell pellet.
The RNA was isolated from Yarrowia strains according to the modified Qiagen RNeasy mini protocol (Qiagen, San Diego, Calif.). Briefly, at each time point for each sample, 340 μL of Qiagen's buffer RLT was used to resuspend each of the two cell pellets. The buffer RLT/cell suspension mixture from each of the two tubes was combined in a bead beating tube (Bio101, San Diego, Calif.). About 500 μL of […] glass beads was added to the tube and the cells were disrupted by bead beating 2 min at setting 5 (BioPulverizer, Bio101 Company, San Diego, Calif.). The disrupted cells were then pelleted by centrifugation at 14,000 rpm for 1 min and 350 μl of the supernatent was transferred to a new microcentrifuge tube. Ethanol (350 μL of 70%) was added to each homogenized lysate. After gentle mixing, the entire sample was added to a RNeasy mini column in a 2 mL collection tube. The sample was centrifuged for 15 sec at 10,000 rpm. Buffer RW1 (350 μL) was added to the RNeasy mini column and the column was centrifuged for 15 sec at 10,000 rpm to wash the cells. The eluate was discarded. Qiagen's DNasel stock solution (10 μL) was added to 70 μl of Buffer RDD and gently mixed. This entire DNase solution was added to the RNeasy mini column and incubated at room temperature for 15 min. After the incubation step, 350 μL of Buffer RW1 was added to the mini column and the column was centrifuged for 15 sec at 10,000 rpm. The column was washed twice with 700 μL […]. RNase-free water (50 μL) was added to the column. The column was centrifuged for 1 min at 10,000 rpm to elute the RNA.
A two-step RT-PCR protocol was used, wherein total Yarrowia RNA was first converted to cDNA and then cDNA was analyzed using Real Time PCR. The conversion to cDNA was performed using Applied Biosystems' High Capacity cDNA Archive Kit (PN#4322171; Foster City, Calif.) and Molecular Biology Grade water from MediaTech, Inc. (PN# 46-000-Con; Holly Hill, Fla.). Total RNA from Yarrowia (100 ng) was converted to cDNA by combining it with 10 μl of RT buffer, 4 μl of 25×dNTPs, 10 μl 10× Random Hexamer primers, 5 μl Multiscribe Reverse Transcriptase and 0.005 μl RNase Inhibitor, and brought to a total reaction volume of 100 μl with water. The reactions were incubated in a thermocycler for 10 min at 25° C. followed by 2 hrs at 37° C. The cDNA was stored at −20° C. prior to Real Time analysis.
Real Time analysis was performed using the SYBR Green PCR Master Mix from Applied Biosystems (PN# 4309155). The Reverse Transcription reaction (2 μl) was added to 10 μl of 2×SYBR PCR Mix, 0.2 μl of 100 μM Forward and Reverse primers for either URA (i.e., primers YL-URA-16F and YL-URA-78R [SEQ ID NOs:183 and 184]) or GUS (i.e., primers GUS-767F and GUS-891R [SEQ ID NO:185 and 186]) and 7.2 μl water. The reactions were thermocycled for 10 min at 95° C. followed by 40 cycles of 95° C. for 5 sec and 60° C. for 1 min in an ABI 7900 Sequence Detection System instrument. Real time fluorescence data was collected during the 60° C. extension during each cycle. […]

[1] = tested on: β-glucuronidase (GUS) reporter; test: Comparative analysis of promoters by histochemical analysis of GUS expression; format: cell-based, Yarrowia lipolytica; conditions: ATCC #76982 strains, MM, FIG. 5B
Procedure: Comparative studies investigating the promoter activities of the TEF, GPD, GPDIN, GPM, GPAT, FBA, FBAIN and YAT1 promoters were performed, by synthesizing constructs comprising each promoter and the E. coli gene encoding β-glucuronidase (GUS) as a reporter gene (Jefferson, R. A. Nature. 14(342):837-838 (1989)). Then, GUS activity was measured by histochemical and fluorometric assays (Jefferson, R. A. Plant Mol. Biol. Reporter 5:387-405 (1987)) and/or by using Real Time PCR for mRNA quantitation.
Yarrowia lipolytica ATCC #76982 strains containing plasmids pY5-30, pYZGDG, pYZGMG, pDMW212 and pDMW214 were grown from single colonies in 3 mL MM at 30° C. to an OD600˜1.0. Then, 100 μl of cells were collected by centrifugation, resuspended in 100 μl of histochemical staining buffer, and incubated at 30° C. Staining buffer was prepared by dissolving 5 mg of 5-bromo-4-chloro-3-indolyl glucuronide (X-Gluc) in 50 μl dimethyl formamide, followed by the addition of 5 mL 50 mM NaPO4, pH 7.0.
In a separate experiment, Y. lipolytica Y2034 strains containing plasmids pY5-30, pYGPAT-GUS, pYAT-GUS and pDMW214 were grown from single colonies in 5 mL SD media at 30° C. for 24 hrs to an OD600˜8.0. Then, 1 mL of cells were collected by centrifugation. The remaining cultures were centrifuged and washed 2× with HGM, resuspended in 5 mL each of HGM and allowed to grow at 30° C. further. After 24 and 120 hrs, ˜0.25 mL of each culture were centrifuged to collect the cells. Cell samples were resuspended individually in 100 μl of histochemical staining buffer (supra). Zymolase 20T (5 μl of 1 mg/mL; ICN Biomedicals, Costa Mesa, Calif.) was added to each, and the mixture incubated at 30° C. […]

Molecule	transcription activity relative to the TEF promoter (GUS mRNA)	transcriptional activity relative to the TEF promoter (GUS mRNA; final day of the 4 day experiment in HGM)	promoter activity by histochemical staining [1]
FBAIN: fructose-bisphosphate aldolase + intron promoter, SEQ ID NO:162 (nucleic acid, listed as Yarrowia lipolytica, misc_feature: Promoter FBAIN) DNA: AAATTGCCCCGGAGAAGACGGCCAGGCCGCCTAGATGACAAATTCAACAACTCACAGCTGACTTTCTGCCATTGCCACTAGGGGGGGGCCTTTTTATATGGCCAAGCCAAGCTCTCCACGTCGGTTGGGCTGCACCCAACAATAAATGGGTAGGGTTGCACCAACAAAGGGATGGGATGGGGGGTAGAAGATACGAGGATAACGGGGCTCAATGGCACAAATAAGAACGAATACTGCCATTAAGACTCGTGATCCAGCGACTGACACCATTGCATCATCTAAGGGCCTCAAAACTACCTCGGAACTGCTGCGCTGATCTGGACACCACAGAGGTTCCGAGCACTTTAGGTTGCACCAAATGTCCCACCAGGTGCAGGCAGAAAACGCTGGAACAGCGTGTACAGTTTGTCTTAACAAAAAGTGAGGGCGCTGAGGTCGAGCAGGGTGGTGTGACTTGTTATAGCCTTTAGAGCTGCGAAAGCGCGTATGGATTTGGCTCATCAGGCCAGATTGAGGGTCTGTGGACACATGTCATGTTAGTGTACTTCAATCGCCCCCTGGATATAGCCCCGACAATAGGCCGTGGCCTCATTTTTTTGCCTTCCGCACATTTCCATTGCTCGGTACCCACACCTTGCTTCTCCTGCACTTGCCAACCTTAATACTGGTTTACATTGACCAACATCTTACAAGCGGGGGGCTTGTCTAGGGTATATATAAACAGTGGCTCTCCCAATCGGTTGCCAGTCTCTTTTTTCCTTTCTTTCCCCACAGATTCGAAATCTAAACTACACATCACACAATGCCTGTTACTGACGTCCTTAAGCGAAAGTCCGGTGTCATCGTCGGCGACGATGTCCGAGCCGTGAGTATCCACGACAAGATCAGTGTCGAGACGACGCGTTTTGTGTAATGACACAATCCGAAAGTCGCTAGCAACACACACTCTCTACACAAACTAACCCAGCTCTCC	~6 times	about 3 times	active; also recorded: strongest promoter activity
FBA: Y. lipolytica fructose-bisphosphate aldolase promoter, SEQ ID NO:161 (nucleic acid, listed as Yarrowia lipolytica, misc_feature: Promoter FBA) DNA: TAAACAGTGTACGCAGTACTATAGAGGAACAATTGCCCCGGAGAAGACGGCCAGGCCGCCTAGATGACAAATTCAACAACTCACAGCTGACTTTCTGCCATTGCCACTAGGGGGGGCCTTTTTATATGGCCAAGCCAAGCTCTCCACGTCGGTTGGGCTGCACCCAACAATAAATGGGTAGGGTTGCACCAACAAAGGGATGGGATGGGGGGTAGAAGATACGAGGATAACGGGGCTCAATGGCACAAATAAGAACGAATACTGCCATTAAGACTCGTGATCCAGCGACTGACACCATTGCATCATCTAAGGGCCTCAAAACTACCTCGGAACTGCTGCGCTGATCTGGACACCACAGAGGTTCCGAGCACTTTAGGTTGCACCAAATGTCCCACCAGGTGCAGGCAGAAAACGCTGGAACAGCGTGTACAGTTTGTCTTAACAAAAAGTGAGGGCGCTGAGGTCGAGCAGGGTGGTGTGACTTGTTATAGCCTTTAGAGCTGCGAAAGCGCGTATGGATTTGGCTCATCAGGCCAGATTGAGGGTCTGTGGACACATGTCATGTTAGTGTACTTCAATCGCCCCCTGGATATAGCCCCGACAATAGGCCGTGGCCTCATTTTTTTGCCTTCCGCACATTTCCATTGCTCGGTACCCACACCTTGCTTCTCCTGCACTTGCCAACCTTAATACTGGTTTACATTGACCAACATCTTACAAGCGGGGGGCTTGTCTAGGGTATATATAAACAGTGGCTCTCCCAATCGGTTGCCAGTCTCTTTTTTCCTTTCTTTCCCCACAGATTCGAAATCTAAACTACACATCACACAATGCCTGTTACTGACGTCCTTAAGCGAAAGTCCGGTGTCATCGTCGGCGACGATGTCCGAGCCGTGAGTATCCACGACAAGATCAGTGTCGAGACGACGCGTTTTGTGTAATGACACAATCCGAAAGTCGCTAGCAACACACACTCTCTACACAAACTAACCCAGCTCTCC	about 3.3 times		active; also recorded: much stronger than all the other promoters
